Target: T1, extracellular region of human V158 FcγRIIIa fused with glutathione S-transferase (GST) (human, UniProt P08637 17-208)
T1 construct: extracellular domain; also called human Val158 FcγRIIIa; not shown: glutathione S-transferase (GST) tag
Assay: AlphaScreen competition as in Example 2 (biotinylated WT antibody on donor beads, GST-tagged human V158 FcγRIIIa on acceptor beads); Fc variants in the context of rituximab

T1 sequence (P08637 17-208 F176V): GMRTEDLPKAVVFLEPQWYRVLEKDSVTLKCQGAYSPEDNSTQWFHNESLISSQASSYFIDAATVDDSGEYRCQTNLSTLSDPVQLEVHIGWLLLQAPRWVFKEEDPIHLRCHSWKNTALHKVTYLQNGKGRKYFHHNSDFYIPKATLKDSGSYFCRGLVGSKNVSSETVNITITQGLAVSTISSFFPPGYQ

IC50 (read off the curve) | Binder
~5 nM | V264I (antibody, N297 glycan, not carried by the letters., also called rituximab V264I; copies: 2 + 2) heavy: not shown light: QIVLSQSPAILSASPGEKVTMTCRASSSVSYIHWFQQKPGSSPKPWIYATSNLASGVPVRFSGSGSGTSYSLTISRVEAEDAATYYCQQWTSNPPTFGGGTKLEIKRTVAAPSVFIFPPSDEQLKSGTASVVCLLNNFYPREAKVQWKVDNALQSGNSQESVTEQDSKDSTYSLSSTLTLSKADYEKHKVYACEVTHQGLSSPVTKSFNRGEC
~0.4 nM | rituximab V264I/I332E (antibody, human IgG1, kappa) heavy: not shown light: QIVLSQSPAILSASPGEKVTMTCRASSSVSYIHWFQQKPGSSPKPWIYATSNLASGVPVRFSGSGSGTSYSLTISRVEAEDAATYYCQQWTSNPPTFGGGTKLEIKRTVAAPSVFIFPPSDEQLKSGTASVVCLLNNFYPREAKVQWKVDNALQSGNSQESVTEQDSKDSTYSLSSTLTLSKADYEKHKVYACEVTHQGLSSPVTKSFNRGEC
